Tests used:
[1] = Enzyme activity of the sample after each purification step; assay type: biochemical
Source text: The sialyltransferase activity may be measured by a known method, for example, the process described in J. Biochem., 120, 104-110 (1996) (which is hereby incorporated by reference in its entirety). For example, the enzyme activity can be evaluated by performing an enzyme reaction using CMP-NeuAc (N-acetylneuraminic acid) as a sugar donor substrate and lactose as a sugar acceptor substrate and evaluating the amount of the reaction product, i.e., sialyllactose. Note that one enzyme unit (1 U) of sialyltransferase is defined as the amount of the enzyme required to transfer one micromole of sialic acid per minute.
Sialyltransferase activity was measured by a method described in J. Biochem., 120, 104-110 (1996) (which is hereby incorporated by reference in its entirety). Specifically, the enzyme reaction was performed using a reaction solution (30 μL) containing CMP-NeuAc (70 nmol, containing about 20000 cpm CMP-NeuAc in which NeuAc was labeled with ^14C; NeuAc represents N-acetylneuraminic acid) as a sugar donor substrate, lactose (1.25 μmol) as a sugar acceptor substrate, NaCl added to give a concentration of 0.5 M, and the enzyme prepared as described above. The enzyme reaction was carried out at 25° C. for about 10 to 180 minutes. After completion of the reaction, 1.97 mL of 5 mM phosphate buffer (pH 6.8) was added to the reaction solution, which was then applied to a Dowex 1×8 (PO4^3− form, 0.2×2 cm, manufactured by Bio-Rad Laboratories, Inc.) column. The radioactivity contained in the reaction product contained in the eluate (0 to 2 mL) from this column, that is, sialyllactose, was measured to calculate the enzyme activity. One enzyme unit (1 U) is defined as the amount of enzyme required to transfer one micromole of sialic acid per minute.
The enzyme activity was measured by the method described in J. Biochem., 120, 104-110 (1996), as in Example 1. The amount of the protein was measured using a Coomassie Protein Assay Reagent (manufactured by Pierce) in accordance with the instruction manual attached thereto. One enzyme unit (1 U) was defined as the amount of enzyme required to transfer one micromole of sialic acid per minute.

[2] = Optimum pH and optimum temperature for sialyltransferase enzyme activity; assay type: biochemical; settings: purified enzyme
Source text: The optimum pH and the optimum temperature of the recombinant β-galactoside-α2,6-sialyltransferase SHIZ119-N1C0 derived from the JT-SHIZ-119 strain were investigated using the purified enzyme prepared in Example 3.
Acetate buffer (pH 4.0 to 5.0), cacodylate buffer (pH 5.0 to 6.0), Bis-Tris buffer (pH 6.0 to 7.0), phosphate buffer (pH 7.0 to 8.0), TAPS buffer (pH 8.0 to 9.0), CHES buffer (pH 9.0 to 10.0), and CAPS buffer (pH 10.0 to 11.0) were each prepared and were used for enzyme activity measurement at 30° C. at various pH levels.
The enzyme activity was measured at every increment of 5° C. starting from 5° C. up to 50° C. using cacodylate buffer (pH 5.0).

[3] = Confirmation of neuraminidase activity (long reaction, HPLC); assay type: biochemical; settings: purified enzyme; PA-6′-sialyllactose signal decreased, PA-lactose signal increased with reaction time; FIG. 3-1
Description: In the process described in Example 2(6), the reaction using the purified enzyme solution of the JT-SHIZ-119-derived recombinant β-galactoside-α2,6-sialyltransferase prepared in Example 3 was performed for a long time. The signal of the reaction product (PA-6′-sialyllactose, retention time: 4.02 min) decreased and the signal of the PA-lactose (retention time: 3.73 min), which was the original sugar acceptor substrate, increased in accordance with an increase in reaction time (FIG. 3-1).

[4] = tested on: JT-SHIZ-119-derived recombinant β-galactoside-α2,6-sialyltransferase N1C0 (neuraminidase activity); assay: Substrate specificity of neuraminidase activity with PA-sugar chains, HPLC; assay type: biochemical, Photobacterium leiognathi strain JT-SHIZ-119; settings: PA-sugar chains with α2,3-, α2,6- or α2,8-linked sialic acid; 30° C. for 18 hours
Description: The substrate specificity of neuraminidase, that is, the linkage mode of sialic acid to a sugar chain that is cleaved by the neuraminidase can be determined by, but not limited to, a method using a pyridylaminated sugar chain. More specifically, the enzyme reaction by neuraminidase is performed using PA sugar chains in which sialic acid is linked by α2,3-linkage, α2,6-linkage, or α2,8-linkage (for example, pyridylaminated sugar chains such as PA-Sugar Chain 029, PA-Sugar Chain 023, and PA-Sugar Chain 034 available from Takara Bio Inc.). The reaction product is analyzed by high performance liquid chromatography, and the amount of sialic acid that was cleaved is calculated from the retention time and peak area of the reaction product.
To reveal the specificity of the neuraminidase activity of the JT-SHIZ-119-derived recombinant β-galactoside-α2,6-sialyltransferase N1C0, reactions using a PA-sugar chain shown in Table 4, to which sialic acid is linked via α2,3-, α2,6-, or α2,8-linkage (PA-Sugar Chain 029, PA-Sugar Chain 023, or PA-Sugar Chain 034, manufactured by Takara Bio Inc.) as a substrate were performed.
To a purified enzyme solution of the JT-SHIZ-119-derived recombinant β-galactoside-α2,6-sialyltransferase N1C0 (equivalent to 0.6 U as sialyltransferase activity), 1.5 μL of a 10 pmol/μL PA-sugar chain was added, followed by reaction at 30° C. for 18 hours. After completion of the reaction, the reaction solution was treated at 100° C. for 2 minutes to inactivate the enzyme, followed by HPLC to analyze the reaction product. In the case of using PA-Sugar Chain 023 as the substrate, the pyridylaminated sugar chain was eluted and analyzed under the same conditions as those in Example 1. In the case of using PA-Sugar Chain 029 or PA-Sugar Chain 034 as the substrate, the elution was performed using eluent A (100 mM acetate-triethylamine, pH 5.0) and eluent B (100 mM acetate-triethylamine containing 0.5% n-butanol, pH 5.0) with a linear gradient of 0 to 100% eluent B (0 to 35 min), 100% eluent B (35 to 50 min), and then a linear gradient of 100% to 30% eluent B (51 to 75 min). The analysis was performed under the conditions of Example 1. FIGS. 3-2 to 3-8 show the results.

[5] = Optimum pH and optimum temperature for neuraminidase activity; assay type: biochemical; settings: purified enzyme
Description: The optimum pH and the optimum temperature for neuraminidase activity of the recombinant β-galactoside-α2,6-sialyltransferase SHIZ119-N1C0 derived from the JT-SHIZ-119 strain were investigated using the purified enzyme prepared in Example 3.
The enzyme activity at various pH levels was measured at 35° C. with the buffer used in Example 4.
The neuraminidase activity was measured at every increment of 5° C. starting from 5° C. up to 50° C. using cacodylate buffer (pH 6.0).

B1: SHIZ119-N1C0 (protein)
chain: MCNDNQNTVDVVVSTVNDNVIENNTYQVKPIDTPTTFDSYSWIQTCGTPILKDDEKYSLSFDFVAPELDQDEKFCFEFTGDVDGKRYVTQTNLTVVAPTLEVYVDHASLPSLQQLMKIIQQKNEYSQNERFISWGRIGLTEDNAEKLNAHIYPLAGNNTSQELVDAVIDYADSKNRLNLELNTNTAHSFPNLAPILRIISSKSNILISNINLYDDGSAEYVNLYNWKDTEDKSVKLSDSFLVLKDYFNGISSEKPSGIYGRYNWHQLYNTSYYFLRKDYLTVEPQLHDLREYLGGSLKQMSWDGFSQLSKGDKELFLNIVGFDQEKLQQEYQQSELPNFVFTGTTTWAGGETKEYYAQQQVNVVNNAINETSPYYLGREHDLFFKGHPRGGIINDIILGSFNNMIDIPAKVSFEVLMMTGMLPDTVGGIASSLYFSIPAEKVSFIVFTSSDTITDREDALKSPLVQVMMTLGIVKEKDVLFWSDLPDCSSGVCIAQY
modifications: beta-galacoside-alpha-2,6-sialyltransferase from phorobacterium leiognathi (without signal peptide)
Specific activity ([1]; sample: Crude enzyme solution): 5.5 U/mg | Specific activity ([1]; sample: HAP): 82.9 U/mg | Specific activity ([1]; sample: Mono-Q): 36.2 U/mg | Specific activity ([1]; sample: Q-sepharose): 35.6 U/mg | pH at which sialyltransferase enzyme activity is the highest (optimum pH) ([2]; 30° C., pH 4.0 to 11.0, FIG. 2-1): 5.0 | temperature at which sialyltransferase enzyme activity is the highest (optimum temperature) ([2]; cacodylate buffer (pH 5.0), 5° C. up to 50° C., FIG. 2-2): 35 °C | neuraminidase activity (in words) [3]: also has neuraminidase activity | specificity of neuraminidase activity (linkage mode) [4]: specific to sialic acid of α2,6-linkage | pH at which neuraminidase activity is the highest (optimum pH) ([5]; 35° C., FIG. 4-1): 6.0 | temperature at which neuraminidase activity is the highest (optimum temperature) ([5]; cacodylate buffer (pH 6.0), 5° C. up to 50° C., FIG. 4-2): 35 °C
